The values below come from US20230295338A1 (YMMUNOBIO, published 2023).

Test [1] addresses T1, human CEACAM8-Fc (human, UniProt P31997 35-320, limits assumed).
T1 construct: also called recombinant CEACAM-Fc protein; not shown: human IgG Fc
T1 sequence (looked up): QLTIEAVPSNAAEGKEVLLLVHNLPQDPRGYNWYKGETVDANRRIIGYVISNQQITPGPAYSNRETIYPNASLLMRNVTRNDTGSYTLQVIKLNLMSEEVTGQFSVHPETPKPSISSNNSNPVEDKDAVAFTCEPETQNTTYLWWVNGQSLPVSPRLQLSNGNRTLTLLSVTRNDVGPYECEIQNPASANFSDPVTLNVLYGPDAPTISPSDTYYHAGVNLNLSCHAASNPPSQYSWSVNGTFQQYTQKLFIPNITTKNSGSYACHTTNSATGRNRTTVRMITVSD
As to the kind of experiment: sandwich ELISA, CC1/3/5-Sab coated, CEACAM-Fc proteins in solution. Background: ELISA stands for enzyme-linked immunosorbent assay.

Test [2] deals with T2, human CEACAM6-Fc (human, UniProt P40199 35-320, limits assumed).
T2 construct: also called recombinant CEACAM-Fc protein; not shown: human IgG Fc
T2 sequence (looked up): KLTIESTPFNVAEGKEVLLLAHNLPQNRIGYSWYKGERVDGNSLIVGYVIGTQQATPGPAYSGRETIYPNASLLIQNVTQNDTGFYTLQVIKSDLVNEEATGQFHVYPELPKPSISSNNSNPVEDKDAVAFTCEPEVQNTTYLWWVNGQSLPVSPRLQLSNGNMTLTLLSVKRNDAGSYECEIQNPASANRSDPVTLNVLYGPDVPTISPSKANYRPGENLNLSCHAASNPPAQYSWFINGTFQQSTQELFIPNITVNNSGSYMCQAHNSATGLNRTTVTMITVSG
Described as above.

Test [3] concerns the target T3, human CEACAM5-Fc (human, UniProt P06731 35-685, limits assumed).
T3 construct: also called recombinant CEACAM-Fc protein; not shown: human IgG Fc
T3 sequence (looked up): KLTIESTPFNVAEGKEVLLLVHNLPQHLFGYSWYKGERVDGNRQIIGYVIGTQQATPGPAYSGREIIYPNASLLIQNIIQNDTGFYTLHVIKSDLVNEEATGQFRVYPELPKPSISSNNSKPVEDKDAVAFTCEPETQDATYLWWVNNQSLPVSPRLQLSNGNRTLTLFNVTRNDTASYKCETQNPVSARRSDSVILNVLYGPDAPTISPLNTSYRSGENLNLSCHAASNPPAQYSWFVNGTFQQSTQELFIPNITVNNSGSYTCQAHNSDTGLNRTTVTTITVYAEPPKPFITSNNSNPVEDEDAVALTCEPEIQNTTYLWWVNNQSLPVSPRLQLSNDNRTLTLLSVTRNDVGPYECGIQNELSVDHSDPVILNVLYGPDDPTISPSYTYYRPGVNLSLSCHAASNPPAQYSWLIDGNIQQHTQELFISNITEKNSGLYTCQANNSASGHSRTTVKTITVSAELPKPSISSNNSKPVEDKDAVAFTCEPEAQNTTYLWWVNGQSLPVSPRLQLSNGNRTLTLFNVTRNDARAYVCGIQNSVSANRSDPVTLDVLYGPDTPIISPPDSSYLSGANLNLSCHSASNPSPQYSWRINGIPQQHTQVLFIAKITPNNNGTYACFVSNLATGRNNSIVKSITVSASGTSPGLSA
As to the kind of experiment: solid phase ELISA, CEACAM-Fc coated, mAb 5 µg/ml (FIG. 19).

Test [4] deals with T4, human CEACAM1-Fc fusion protein (human, UniProt P13688 35-428).
T4 construct: Said to comprise the entire extracellular domain of human CEACAM1; also called CEACAM1-huFc; recombinant CEACAM1-Fc; not shown: human IgG Fc (huFc)
T4 sequence: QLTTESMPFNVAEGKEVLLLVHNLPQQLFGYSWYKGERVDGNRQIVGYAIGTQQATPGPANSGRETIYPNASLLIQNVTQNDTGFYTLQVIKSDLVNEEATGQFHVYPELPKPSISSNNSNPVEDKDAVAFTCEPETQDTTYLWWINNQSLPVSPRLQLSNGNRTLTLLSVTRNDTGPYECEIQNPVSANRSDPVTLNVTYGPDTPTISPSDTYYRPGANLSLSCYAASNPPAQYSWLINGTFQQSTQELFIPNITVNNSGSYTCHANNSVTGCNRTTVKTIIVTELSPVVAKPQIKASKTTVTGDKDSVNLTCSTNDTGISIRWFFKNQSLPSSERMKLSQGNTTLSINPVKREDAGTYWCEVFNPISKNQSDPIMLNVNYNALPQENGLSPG
The test is described as above.

Test [5] has as its target T5, human CEACAM3-Fc (human, UniProt P40198 35-155, limits assumed).
T5 construct: also called recombinant CEACAM-Fc protein; not shown: human IgG Fc
T5 sequence (looked up): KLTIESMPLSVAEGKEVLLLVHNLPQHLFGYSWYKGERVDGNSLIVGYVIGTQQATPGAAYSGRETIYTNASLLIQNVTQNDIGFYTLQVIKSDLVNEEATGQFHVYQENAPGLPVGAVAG
The description is as above.

Test [6] addresses T6, CEACAM1-dN-Fc (human, UniProt P13688 143-428, limits assumed).
T6 construct: Human CEACAM1 extracellular part without the N domain, fused to Fc; also called CEACAM1 variant lacking the N domain; not shown: human IgG Fc
As to the kind of experiment: solid phase ELISA, CEACAM-Fc coated (FIG. 19).

For test [7], the target named is T7, peptide P-Q-Q-L-F-G-Y-S-W-Y (human).
T7 construct: coated on the ELISA plate
T7 peptide: PQQLFGYSWY
As to the kind of experiment: solid phase peptide ELISA, mAb 5 µg/ml (FIG. 20).
Description: After three times washing with PBS, samples were incubated with goat anti mouse-HRP (Jackson ImmunoResearch, 1:10.000 dilution in 1% BSA/PBS, 100 µl/well). Then plates were washed three times with PBS, developed with 100 µl TMB substrate, blocked with 100 µl 0.2 M H2SO4 and measured by the TECAN-ELISA reader sunrise at 450 nm. Samples were run in triplicates. Results shown are representative for three independent repeats.

The target in test [8] is T8, human CEACAM3 (human, UniProt P40198 35-252).
T8 construct: whole, on cells; also called huCEACAM3; CHO transfectants expressing human CEACAM3
T8 sequence (looked up): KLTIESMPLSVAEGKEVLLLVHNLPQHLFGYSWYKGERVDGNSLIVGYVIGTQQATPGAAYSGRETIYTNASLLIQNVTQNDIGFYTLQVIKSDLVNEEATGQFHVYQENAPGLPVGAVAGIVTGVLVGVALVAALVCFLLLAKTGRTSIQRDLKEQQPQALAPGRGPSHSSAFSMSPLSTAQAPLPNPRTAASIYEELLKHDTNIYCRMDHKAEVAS
As to the kind of experiment: flow cytometry on CHO transfectants.
Description: (§1) After washing, FITC-labeled secondary goat anti mouse antibody was applied. Cell surface binding was analyzed utilizing a FACScalibur flow cytometer (Becton Dickinson).

The target of test [9] is T9, human CEACAM1 (human, UniProt P13688 35-526).
T9 construct: Expressed on CHO transfectants; also called huCEACAM1; CHO-CEACAM1
T9 sequence: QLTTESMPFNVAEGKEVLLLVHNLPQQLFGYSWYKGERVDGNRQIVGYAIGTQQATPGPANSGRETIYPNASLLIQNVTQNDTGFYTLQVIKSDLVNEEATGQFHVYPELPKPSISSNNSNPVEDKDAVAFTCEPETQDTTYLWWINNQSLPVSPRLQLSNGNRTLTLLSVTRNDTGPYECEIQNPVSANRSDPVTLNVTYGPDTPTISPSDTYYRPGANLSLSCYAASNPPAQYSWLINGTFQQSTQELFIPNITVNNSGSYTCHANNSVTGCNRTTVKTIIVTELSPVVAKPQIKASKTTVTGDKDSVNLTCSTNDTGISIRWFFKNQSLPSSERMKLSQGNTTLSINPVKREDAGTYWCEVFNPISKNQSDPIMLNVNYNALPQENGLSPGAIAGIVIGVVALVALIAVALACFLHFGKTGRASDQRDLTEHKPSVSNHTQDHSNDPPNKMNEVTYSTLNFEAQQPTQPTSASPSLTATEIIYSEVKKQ
As to the kind of experiment: flow cytometry on CHO transfectants. (In flow cytometry, cells or beads pass a laser one at a time.)
Description: as §1

B1: CC1/3/5-Sab (antibody, V domains shown)
VH: EVQLQQSGPELVKPGTSVKMSCKASGYTFTTYVMHWVQQKPGQGLDWIGFFNPYNDGTKYNEKFKGKATLTSDKSSSTAYMELSSLTSEDSAVYYCARWAYDGSYAYWGQGTTLTVSS
VL: DIQMTQSSSYLSVFLGGRVTITCKASDHINNWLAWYQQKPGNAPRLLISGATSLETGVPSRFSGSGSGKDYTLSIISLQTEDVATYYCQQYWRTPFTFGSGTKLEIK
notes: also called mAb CC1/3/5-Sab; CC1/3/4-Sab
Turning to B1, the binding result in [1] is listed as “no binding (tested: 0.1 µg/ml CEACAM-Fc)”; in [2] it was “no binding (tested: 0.1 µg/ml CEACAM-Fc)”; in test [3] it was “binds”; in test [4] it was “binds”; in [5], “binds”; in [6], “no binding (tested: 5 µg/ml)”. Besides, the binding result in test [7], in test [8] and in test [9] was “binds” each time.
